Test results as given in patent US20140162285A1, “Methods of Modulating Vesicular Trafficking” (The General Hospital Corporation, priority 2009, published 2014).

Target: T1, ARNO PH-domain (Homo sapiens, UniProt Q99418)
T1 construct: iv) 253-378aa, plekstrin-homology (PH) domain; made in house; host or cells: E. coli BL21(DE3)
T1 sequence (Q99418 253-378): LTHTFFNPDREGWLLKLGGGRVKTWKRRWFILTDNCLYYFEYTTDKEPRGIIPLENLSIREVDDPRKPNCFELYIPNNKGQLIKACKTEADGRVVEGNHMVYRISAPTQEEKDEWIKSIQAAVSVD
Assay: GST pull-down of in vitro translated a2N with ARNO PH-domain
Format: binding
Details: Western blot anti-a2N
Method: The purified recombinant GST-ARNO(wt) and GST-tagged ARNO domain constructs ([…]) were incubated with 10 μl of in vitro translated 6His-a2N recombinant protein at 4° C. for 2 hours in 500 μl of binding buffer (10 mM HEPES, 1 mM EDTA, 1 mM DTT, 100 mM NaCl, 10% glycerol, 0.1% NP-40) with gentle rotation. Then the interacting recombinant proteins were immobilized on glutathione beads by incubation with 50 μl of 50% glutathione Sepharose 4B slurry for 2 hours at 4° C. The beads were collected by centrifugation and washed 5 times with 500 μl ice-cold binding buffer. Interacting proteins were eluted by boiling in SDS-PAGE sample buffer for 10 min at 95° C., resolved by SDS-PAGE and analyzed by Western blotting using polyclonal anti-a2N antibodies. […]
To examine the ability of these well-defined and functionally distinct domains of ARNO to interact with a2N1-402, full-length ARNO(wt) and its four domains were cloned separately for bacterial expression of recombinant proteins (FIG. 3). […] Interacting proteins were detected by western blot analysis with a2-specific antibodies as described above.

B1: a2N: recombinant N-terminal cytosolic tail, amino acid residues 1-402 of mouse V-ATPase a2-subunit (protein)
chain: MGSLFRSESMCLAQLFLQSGTAYECLSALGEKGLVQFRDLNQNVSSFQRKFVGEVKRCEELERILVYLVQEITRADIPLPEGEASPPAPPLKHVLEMQEQLQKLEVELREVTKNKEKLRKNLLELVEYTHMLRVTKTFLKRNVEFEPTYEEFPALENDSLLDYSCMQRLGAKLGFVSGLIQQGRVEAFERMLWRACKGYTIVTYAELDECLEDPETGEVIKWYVFLISFWGEQIGHKVKKICDCYHCHIYPYPNTAEERREIQEGLNTRIQDLYTVLHKTEDYLRQVLCKAAESVCSRVVQVRKMKAIYHMLNMCSFDVTNKCLIAEVWCPEVDLPGLRRALEEGSRESGATIPSFMNTIPTKETPPTLIRTNKFTEGFQNIVDAYGVGSYREVNPALFTII
modifications: left off: small tags and cut ends
notes: recombinant N-terminal cytosolic tail, amino acid residues 1-402 of mouse V-ATPase a2-subunit
  interaction of a2N with ARNO PH-domain: weakly
